± gives the uncertainty stated by the source.
Assay: self-splicing fitness, log relative to wild type (ln ratio); higher = more splicing; Tetrahymena group I intron in knt gene, E. coli kanamycin selection, DiMSum; sequences stand for … in CUCUCU…GGAGGGAAAAGUUAUCAGGCAUGCACCUGGUAGCUAGUCUUUAAACCAAUAGAUUGCAUCGGUUUAAAAGGCAAGACCGUCAAAUUGCGGGAAAGGGGUCAACAGCCGUUCAGUACCAAGUCUCAGGGGAAACUUUGAGAUGGCCUUGCAAAGGGUAUGGUAAUAAGCUGACGGACAUGGUCCUAACCACGCAGCCAAGUCCUAAGUCAACAGAUCUUCUGUUGAUAUGGAUGCAGUUCACAGACUAAAUGUCGGUCGGGGAAGAUGUAUUCUUCUCAUAAGAUAUAGUCGGACCUCUCCUUAAUGGGAGCUAGCGGAUGAAGUGAUGCAACACUGGAGCCGCUGGGAACUAAUUUGUAUGCGAAAGUAUAUUGAUUAGUUUUGGAGUACUCGUGGUCG
How it was run: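 Six replicate transformations of E. coli BL21(DE3) with a pET-22b(+) library were grown overnight at 37°C or 30°C. The library randomised all eight P1ex-region intron nucleotides, the intron lying in the knt kanamycin-resistance gene, and plates were LB agar with or without 25 μg/mL kanamycin plus 100 μg/mL carbenicillin, 50 μM IPTG and 0.2% rhamnose. Pooled colonies were amplicon-sequenced on an Illumina HiSeq 2500, and fitness is the DiMSum error-weighted combination of wild-type-normalised replicate fold changes, kanamycin versus none.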

Row | Sequence | self-splicing fitness (ln) (30 °C) | self-splicing fitness (ln) (37 °C)
1 | AGUUAGCAAUAUUACGCCGG | -2.98 ± 0.34 | -2.26 ± 0.39
2 | ACGUAGCAAUAUUACGAGCG | -1.53 ± 0.11 | -0.668 ± 0.12
3 | ACAAAGCAAUAUUACGCAUG | -1.82 ± 0.075 | -0.868 ± 0.084
4 | GCGUAGCAAUAUUACGCUGG | -2 ± 0.18 | -2.12 ± 0.32
5 | AACUAGCAAUAUUACGUACA | -1.19 ± 0.099 | -0.373 ± 0.13
6 | UUCGAGCAAUAUUACGGCAU | -2.95 ± 0.27 | -1.44 ± 0.19
7 | GCUAAGCAAUAUUACGUGGU | -3.27 ± 0.19 | -2.5 ± 0.18
8 | UUACAGCAAUAUUACGGGGU | -4.73 ± 0.22 | -3.21 ± 0.17
9 | AUUGAGCAAUAUUACGCACC | -1.98 ± 0.3 | -1.84 ± 0.43
10 | ACGUAGCAAUAUUACGCUGG | -2.32 ± 0.18 | -2.64 ± 0.41
11 | GGCUAGCAAUAUUACGUGUU | -1.02 ± 0.058 | 0.41 ± 0.063
12 | AAUCAGCAAUAUUACGGUCG | -0.214 ± 0.048 | 0.0375 ± 0.065
13 | CCGAAGCAAUAUUACGAUCG | -0.383 ± 0.065 | -0.283 ± 0.076
14 | ACUAAGCAAUAUUACGAGUA | -2.35 ± 0.17 | -1.78 ± 0.18
15 | AACAAGCAAUAUUACGACUU | -0.0432 ± 0.046 | 0.207 ± 0.064
16 | UCGAAGCAAUAUUACGGGAA | -2.02 ± 0.12 | -0.804 ± 0.11
17 | GUGCAGCAAUAUUACGCAAU | -1.75 ± 0.085 | -1.37 ± 0.12
18 | AGAUAGCAAUAUUACGCUAA | -1.46 ± 0.15 | -0.455 ± 0.15
19 | ACUUAGCAAUAUUACGCGUA | -1.82 ± 0.2 | -1.18 ± 0.2

Row | Sequence | self-splicing fitness (ln) (30 °C) | self-splicing fitness (ln) (37 °C)
20 | UAAAAGCAAUAUUACGACCC | -1.73 ± 0.28 | 0.481 ± 0.33
21 | UCAGAGCAAUAUUACGAGGU | -3 ± 0.29 | -2.5 ± 0.32
22 | GUGAAGCAAUAUUACGUCCA | -0.721 ± 0.16 | 0.775 ± 0.22
23 | UCCAAGCAAUAUUACGAAUC | – | -1.28 ± 0.19
24 | GCAAAGCAAUAUUACGAUGG | -1.02 ± 0.099 | -0.442 ± 0.13
25 | AGUAAGCAAUAUUACGCCUG | -2.19 ± 0.12 | -1.15 ± 0.12
26 | UGCAAGCAAUAUUACGAUCG | -0.2 ± 0.07 | 0.647 ± 0.093
27 | UCAUAGCAAUAUUACGUUGU | -4.35 ± 0.23 | -2.77 ± 0.21
28 | CUUAAGCAAUAUUACGCAUG | -2.35 ± 0.12 | -1.5 ± 0.13
29 | CUUUAGCAAUAUUACGUGGC | – | -2.47 ± 0.44
30 | ACGCAGCAAUAUUACGCUAA | -1.79 ± 0.08 | -0.352 ± 0.081
31 | AAGAAGCAAUAUUACGACCC | -1.01 ± 0.16 | -0.395 ± 0.17
32 | UAACAGCAAUAUUACGCGCG | -0.332 ± 0.064 | -0.361 ± 0.078
33 | CGAAAGCAAUAUUACGGCGA | -0.763 ± 0.11 | -0.486 ± 0.11
34 | ACCCAGCAAUAUUACGCCGA | -1.26 ± 0.075 | -1.14 ± 0.082
35 | CUUAAGCAAUAUUACGUGUA | -3.17 ± 0.14 | -2.64 ± 0.17
36 | CAGUAGCAAUAUUACGUGAA | -3.97 ± 0.34 | -2.15 ± 0.22
37 | AAUCAGCAAUAUUACGUCGU | -0.489 ± 0.054 | 0.414 ± 0.071
38 | AUUUAGCAAUAUUACGAAGC | -2.88 ± 0.23 | -3.6 ± 0.46

— the supplement of paper PMC7877785
